Reference: article PMC10666096 (Proceedings of the National Academy of Sciences of the …, 2023)

Biological target: the molecule itself
Experiment: single-molecule photobleaching analysis

B1: Cyanine-5 labeled N43S Fluc-Bpe (natural protein, Bordetella pertussis)
chain: MLTYAPLNFIAIGIGATLGAWLRWVLGLKLNGAGWPWGTLTASLVGGYLIGVMVALIASHPEWPAWIRLAAVTGFLGGLTTFSTFSAETVDMLSRGVYATAAAYAGASLAGSLAMTGLGLATVRLLLC
modifications: Cy5 (Cyanine5-maleimide) on the cysteine of R128C
  stoichiometry N: 2
